{"source": "patent US20050158807A1", "biological_target": "Fas receptor on cultured mouse thyroid follicular cells (mouse) (UniProt P25446)", "sequence (P25446 22-327)": "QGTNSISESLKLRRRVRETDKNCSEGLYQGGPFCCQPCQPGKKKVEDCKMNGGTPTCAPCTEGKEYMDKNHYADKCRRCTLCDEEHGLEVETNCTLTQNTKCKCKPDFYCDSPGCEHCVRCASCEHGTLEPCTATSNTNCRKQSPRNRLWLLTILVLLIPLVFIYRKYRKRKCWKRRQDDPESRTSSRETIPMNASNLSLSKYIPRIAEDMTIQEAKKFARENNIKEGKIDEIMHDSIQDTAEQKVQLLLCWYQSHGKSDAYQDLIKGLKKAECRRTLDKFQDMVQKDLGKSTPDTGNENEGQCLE", "assay": "cell-based or functional assay"}
{"substance": "clone Jo2 anti-Fas antibody (Pharmingen)", "values": [{"measurement": "percentage of proliferation increase of anti-Fas versus control cultures ([3H] thymidine), 48 h", "value": 37, "unit": "%"}, {"measurement": "percentage of proliferation increase of anti-Fas versus control cultures ([3H] thymidine), 72 h", "value": 49, "unit": "%"}, {"measurement": "percentage of proliferation increase of anti-Fas versus control cultures ([3H] thymidine), 96 h", "value": 61, "unit": "%"}]}
